4 molecules from doi:10.1101/2022.05.06.490860 (bioRxiv, 2022) can be followed below.

Data set [1] has as its target KatA, dimer form (KatA-2) (B. subtilis) (UniProt P26901). As to the kind of experiment: SEC. On the technique in general: Size exclusion chromatography separates by hydrodynamic size, large species first.
Data set [2] deals with YjoB-NTD (residues 1-159), oligomer form NTD-1 (B. subtilis 168) (UniProt O34703). As to the kind of experiment: crystal structure.
The data set “crystal structure” deals with the molecule itself. As to the kind of experiment: crystal structure.
Data set [3] addresses T1, KatA, monomeric form (KatA-1) (B. subtilis, UniProt P26901 1-483).
T1 sequence (looked up): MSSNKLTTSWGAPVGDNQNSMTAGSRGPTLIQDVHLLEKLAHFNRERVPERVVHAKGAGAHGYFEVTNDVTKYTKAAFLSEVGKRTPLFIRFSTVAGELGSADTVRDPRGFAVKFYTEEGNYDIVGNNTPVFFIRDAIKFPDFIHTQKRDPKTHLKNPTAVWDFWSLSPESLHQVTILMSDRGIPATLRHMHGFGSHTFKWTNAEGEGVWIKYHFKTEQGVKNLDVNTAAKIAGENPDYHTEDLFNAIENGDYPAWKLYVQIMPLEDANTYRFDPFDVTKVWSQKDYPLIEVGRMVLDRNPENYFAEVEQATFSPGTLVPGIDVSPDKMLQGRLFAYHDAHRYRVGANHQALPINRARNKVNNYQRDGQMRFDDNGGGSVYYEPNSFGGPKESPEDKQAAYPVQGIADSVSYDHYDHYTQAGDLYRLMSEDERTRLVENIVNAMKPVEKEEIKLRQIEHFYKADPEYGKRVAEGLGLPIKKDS
As to the kind of experiment: SEC.

The data set “SEC” concerns the molecule itself. The data set can be described thus: SEC.

As usually defined, the stoichiometry N is the number of molecules, sites or subunits per partner or assembly. As to “KatA, dimer form (KatA-2) (from UniProt P26901 1-483) (enzyme)”, the stoichiometry N in data set [1] is 2.
“YjoB-NTD (residues 1-159), oligomer form NTD-1 (from UniProt O34703 1-159) (domain or fragment)” displayed a stoichiometry N in data set [2] of 12.

B1: Bacillus subtilis YjoB (residues 1-423) (natural protein, B. subtilis 168, UniProt O34703 1-423, looked up)
chain: MTNIPFIYQYEEKENERAAAGYGTFGYLITRIEETLYDQYGVFYELYASDDPNTEYWELLVEDVRSGSLEPEHVAYIFEKLEKKTFAYDEDEKEPDYTVHKSIRNSVYAYPEKGVAFARIPYFQDGSIMSFDCLFAVNDEKMRAFLEGVRPRLWEKSKRKVTVFTDGDGGTSREQEAIVREVQRSQVIMNPLLKKEIYRSIDQFFHSDKSFYQTYDIPYKRGILLYGPPGNGKTTLVKSIAGSIDAPVAYWQITEFTSSETIEEVFQAARRLAPAVLVIEDIDSMPEDVRSFFLNTLDGATSKEGLFLIGTTNYPEEIDPGLMNRAGRFDRAYEIGLPDEELRLEYMKMRGFGIFLSEGEIKNAAKLTEGFSFAQLGELYVSSALQWHQEGNHHIETMVKDMTGEQRKSQRGSWMERNKVGFH
For the molecule B1, the “stoichiometry N” value in the data set “crystal structure” was 6. The binding result in data set [3] is “binds”.

B2: YjoB-AAA domain (residues 159-423) (domain or fragment, B. subtilis 168, UniProt O34703 159-423, looked up)
chain: RKVTVFTDGDGGTSREQEAIVREVQRSQVIMNPLLKKEIYRSIDQFFHSDKSFYQTYDIPYKRGILLYGPPGNGKTTLVKSIAGSIDAPVAYWQITEFTSSETIEEVFQAARRLAPAVLVIEDIDSMPEDVRSFFLNTLDGATSKEGLFLIGTTNYPEEIDPGLMNRAGRFDRAYEIGLPDEELRLEYMKMRGFGIFLSEGEIKNAAKLTEGFSFAQLGELYVSSALQWHQEGNHHIETMVKDMTGEQRKSQRGSWMERNKVGFH
B2: in the data set “SEC”, the “stoichiometry N” value stood at 6.
